B1: Tret1 CRE2 (dsDNA)
DNA 1: TTTTTGTAACCTTAAACTCCT
DNA 2: AGGAGTTTAAGGTTACAAAAA
B2: Tret1 CRE1 (dsDNA)
DNA 1: AGCTTCTCCTTGACGTGTAG
DNA 2: CTACACGTCAAGGAGAAGCT
B3: GK CRE3 (dsDNA)
DNA 1: GATTGTCAATGTCAATGTCATGAACA
DNA 2: TGTTCATGACATTGACATTGACAATC
B4: HPD CRE2 (dsDNA)
DNA 1: GGACTATAACCTCGTCTCTT
DNA 2: AAGAGACGAGGTTATAGTCC
B5: Akr2e CRE2 (dsDNA)
DNA 1: ACTAGTTAAGGTTACGCTGA
DNA 2: TCAGCGTAACCTTAACTAGT
B6: HPD CRE3 (dsDNA)
DNA 1: TCCACAAACGTCAATAGC
DNA 2: GCTATTGACGTTTGTGGA
B7: Ca7 CRE4 (dsDNA)
DNA 1: ATTCAATAGGTTATTTCT
DNA 2: AGAAATAACCTATTGAAT
B8: Ca7 CRE1 (dsDNA)
DNA 1: TAATGTGACTTTGAATCG
DNA 2: CGATTCAAAGTCACATTA
B9: Aldh1b1 CRE3 (dsDNA)
DNA 1: CCTGGTTAAGGTTAGAAGTC
DNA 2: GACTTCTAACCTTAACCAGG
B10: GlyP CRE3 (dsDNA)
DNA 1: ACGTCCAACGTCAAACCA
DNA 2: TGGTTTGACGTTGGACGT
B11: HPD CRE1 (dsDNA)
DNA 1: ACACGCGCCCTTTATATA
DNA 2: TATATAAAGGGCGCGTGT
B12: GK CRE1 (dsDNA)
DNA 1: CCCCATGACCTTCGCCGG
DNA 2: CCGGCGAAGGTCATGGGG
B13: Acyl CRE1 (dsDNA)
DNA 1: TATATTGCCCTTGTAAGT
DNA 2: ACTTACAAGGGCAATATA
B14: FAH CRE1 (dsDNA)
DNA 1: TTTTTCCAAGGACGTTTGAG
DNA 2: CTCAAACGTCCTTGGAAAAA
B15: UGT46A2 CRE2 (dsDNA)
DNA 1: TCGTCGTAACCTTAAAGATA
DNA 2: TATCTTTAAGGTTACGACGA
B16: Ca7 CRE3 (dsDNA)
DNA 1: GACTTCGAATGTCATGTCGC
DNA 2: GCGACATGACATTCGAAGTC
B17: Ca7 CRE2 (dsDNA)
DNA 1: TTTATTGCCCTTGTAGGC
DNA 2: GCCTACAAGGGCAATAAA
B18: TPS CRE3 (dsDNA)
DNA 1: GGCTGTAACCTTGTCCTC
DNA 2: GAGGACAAGGTTACAGCC
B19: UGT33D8 CRE2 (dsDNA)
DNA 1: TCAGGCAAGGTCAAAGCC
DNA 2: GGCTTTGACCTTGCCTGA
B20: Chsy1 CRE1 (dsDNA)
DNA 1: TCTCACAAGGTTGATGTC
DNA 2: GACATCAACCTTGTGAGA
B21: Atgl CRE3 (dsDNA)
DNA 1: CGCTCTGACATTGAAAAG
DNA 2: CTTTTCAATGTCAGAGCG
B22: Tret1 CRE3 (dsDNA)
DNA 1: GCGGACTCACAAGGTCCTACCA
DNA 2: TGGTAGGACCTTGTGAGTCCGC

The first data set has as its target T1, BmERR DBD (Bombyx mori, UniProt A0A1B1M0R7 103-178).
T1 sequence: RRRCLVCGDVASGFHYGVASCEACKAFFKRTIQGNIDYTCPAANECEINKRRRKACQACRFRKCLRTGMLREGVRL
Kind of data set: EMSA; not among Table 2 motifs; EMSA, Beyotime kit buffer (composition not given), 25 °C 25 min; 5% native PAGE in 1x TBE (45 mM Tris-borate, 1 mM EDTA, pH 8.3). The settings on record: protein: recombinant; label: biotin 3'; blunt. (Mobility shift assays separate free from complexed probe on a gel.)
With B1, the binding result is reported as “binds”.
With B2, the binding result is given as “binds”.

The target of another data set is T1, BmERR DBD. Kind of data set: EMSA; EMSA, Beyotime kit buffer (composition not given), 25 °C 25 min; 5% native PAGE in 1x TBE (45 mM Tris-borate, 1 mM EDTA, pH 8.3). The settings on record: protein: recombinant; label: biotin 3'; blunt.
As to B3, the binding result is listed as “binds”.
The same measure, in the same setting: the entry for B4 is “binds”; for B5 it is “binds”.
The same measure, in the same setting: the result for B6 reads “binds”.
For B7, the binding result is on record as “binds”.
Same read-out and setting: the entry for B8 is “binds”.
The same measure, in the same setting: the entry for B9 is “binds”.
The same measure, in the same setting: the result for B10 reads “binds”.
Turning to B11, the binding result was “binds”.
Consider B12, for which the binding result is recorded as “binds”.
Same read-out and setting: the entry for B13 is “binds”; for B14 it is “binds”; for B15 it is “binds”.
On the same count and under the same terms, the result for B16 reads “binds”; that for B17, “binds”.
Consider B18, for which the binding result is recorded as “binds”.
With B19, the binding result is “binds”.
B20: the binding result was “binds”.
The same measure, in the same setting: the result for B21 reads “binds”.

The target of another data set is T1, BmERR DBD. In words: EMSA; listed in Table 2; text names only CRE1 and CRE2; EMSA, Beyotime kit buffer (composition not given), 25 °C 25 min; 5% native PAGE in 1x TBE (45 mM Tris-borate, 1 mM EDTA, pH 8.3). Conditions: protein: recombinant; label: biotin 3'; blunt.
As to B22, the binding result is given as “binds”.

The values above are taken from PMC12112554, “Estrogen-Related Receptor Potential Target Genes in Silkworm (Bombyx mori): Insights into Metabolic Regulation”.
